# Source: patent US20190134606A1
# Biological target: Fab fragment derived from the humanized anti-IgE monoclonal IgG omalizumab ("Xolair", Novartis), made by papain digestion
# Experiment: column breakthrough, 1 mg/mL Fab, HiTrap Protein L column, ligand density 10 mg/mL-gel from the manual
substance,measurement,value
"Protein L ligand of the commercially available Protein L carrier (""HiTrap Protein L"" manufactured by GE Healthcare)",55% DBC,21.7 mg/mL-gel
